Data as given in the nanobody polyreactivity screen of Harvey et al. (2022).

Test: yeast display, Sf9 membrane polyspecificity reagent, FACS + sequencing; frameworks hold sequencing errors
Outline: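 After 36–48 hours of galactose induction, yeast (Saccharomyces cerevisiae BJ5465) displaying a synthetic nanobody library were stained at 4 °C for 1 hour with 10% biotinylated, detergent-solubilized Sf9 membrane reagent. Streptavidin microbeads enriched the stained cells before FACS sorting into low and high (top ~1%) gates on anti-HA and streptavidin fluorescence. Each clone's polyreactivity label reflects its gate of origin.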

Row | Sequence | polyreactivity (PSR sort gate)
1 | QFQLVESGGGFVQAGGSLRLSCAASGRIFKTYMGWYRQAPGKESELVAGITRGGGSTYYADSVKGRFTISRDNAKNTVYLQMNSLKPEDTAVYYCAADAWSSYLDRPFDYWGQGTQVTVSS | high polyreactivity
2 | QVQLVESGGGLVQAGGSLRLSYAASGSTFFFNALGWYRQAPGKERELVATISRDGSTNYADSVKGRFTISRDNAKNTVYLQINSLKPEDTAVYYCAAGWGWPYHQYDYWGQGTQVTVSS | low polyreactivity
3 | QVQLVESGGGLVQAGGSLRLSCAASGSIFYGYDMGWYRQAPGKERELVATISWSSGSSTYYADSVKGRFTISRDNAKNTVYLQMNSLKPEDTAVYYCAVDFAIGYRYLGRVDYWGQGTQVTVSS | low polyreactivity
4 | QVQLVESGGGLVQAGGSLRLSCASSGFIFRHYAMGWYRQAPGKARELVAVINWSGSSTYYADSVKGRFTISRDNAKNTVYLQMNSLKPEDTAVYYCAVRSLRVDKYGYWGQGTQVTVSS | high polyreactivity
5 | QVQLVESGGGLVQAGGSLRLSCAASGRTFASNVMGWYRQAPGKERELVAAISRRGGSTYYADSVKGRFTISRDNAKNTVYLQMNSLKPEDTAVYYCNAVLYHLTYDYWGQGTQVTVSS | high polyreactivity
6 | QVQLVESGGGLVQAGGSLRLSCAASVSIFATNAKGWYRQAPGKERELVASISSGGGSTYYADSVKGRFTISRDNEKNTVYLQMNSLKPEDTAVYYFARRIGHGSRPYWLETWRYPYDYWGQGTQLTVSS | low polyreactivity
7 | QVQLVESGGGLVQAGGSLRLSCAASGGTIVWNAMGWYRQAPGKEREFVAAITSSGGSTYYADSVKGRFTISRDNEKNTVYLQMNSLKPEDTAVYYCNVDTHSSYEFNSWGQGTQVTVSS | low polyreactivity
8 | QVRLVESGGGLVQAGGSLRLSCAASGRIFQYYAMGWYRQAPGKERELVASITSGGGSTYYADSVKGRFTISRDNAKNTVYLQMNSLKPEDTAVYYCNARWYGLSTRYDYWGQGTQVTVSS | low polyreactivity
9 | QVQLVESGGGLVQAGGSLRLSCAASGRIFSDYAMGWYRQAPGKERELVATITSGDSTNYEDSVKGRFTISRDNAKNTVYLQMNSLKPVDTAVYYCIADRYADYDYWGQGTQVTVSS | low polyreactivity
10 | QVQLVESGGGLVQAVGRLRLSCAASGGIFSINAMGWYRQAPGKERELVAAIRWNSGRTYYADSVKGRFTISRDNAKNTVYLQMNSLKPEDTAVYYCAVRDYISWEDYYWGQGTQVTVSS | high polyreactivity
11 | QVQLVESGGRLVQAGGSLRLSCAASGSTFTRYVMGWYRQAPGKERELVAVISSSGGSTYYADSVKGRFTISRDNAKNTVYLQMNSLKPEDTAVYYCAARYSAKHYGYGYWGQGTQVTVSS | high polyreactivity
12 | QVQLVESGGGLVQAGGSLRLSCAASGSIFLVNAMGWYRQAPGKERELVAIDGSGGSTYADSVKGRFTISRDNAMNTVYLQMNILKPEDTAVYYCAKDQEGPLYDYWGQGTQVTVSS | low polyreactivity
13 | QVQLVESGGGLVQAGGSLRLSCAASGLTFPYNVMGWYRQAPGKERELVASITSVGTTDYADSVKGRFTISRDNAKNTVSVLMNSLKPEVTAVYYCAADVTLFYWWYGKEDYDYWGQGTQVTVSS | low polyreactivity
14 | QVQLVESGGGLVQAGGSLRLSCAASGSTLSRYAMGWYRQAPGKERELVATITRRGGSTFYADSVKGRFTISRDNAKNTVYLQMNSLKPEDTAVYYCAVGRLFWGQGTQVTVSS | low polyreactivity
15 | QVQLVESGGGLVQAGGSLRLSCAASGRIFTDYTMGWYRHAPGKERELDAAISKGGSGTYYADSVKGRFTISRDNAKNTVYLQMNSLKPEDTAVYYCNKVISTGEYDYWGQGTQVTVSS | low polyreactivity
16 | QGQLVESGGGLVQAGGSLRLSCAASGFSYGFYAMGWYRQAPGKERELVASNSNGDSTNYADSVKGRFTISRDNAKNTVYLQMNSLKPEDTAVYYCATYGGYNPSPLYWGQGTQVTVSS | high polyreactivity
17 | QVQLVESGGGLVQAGGSLRLSCAASGSTFRYNAMGWYRQAPGKERELVAAINRGGGTDYADSVKGRFTISRDNAKNTVYLQMNSLKPEDTAVYYCAKQFVSYNRWLAYGYWGQGTQVTVSS | low polyreactivity
18 | QVQLVESGGGLVQAGGSLRLSCAASGSIFFDGNAMGWYRQAPGKERELVAAISVSGGSTYYADSVKGRFTISRDNAKNTVYLQMNSLKPEDTAVYYCAKYPSKSYVPGDYWGQGTQVTVSS | low polyreactivity
19 | QVQHVESGGGLVQAGGSLRLSCAASGRIFYGYAMGWYRQAPGKERELVAAISSSGGSTYYADSVKGRFTISRDIAKNTVYLQMNSLKPEDTAVYYCNAQRYRPGYWYDYWGQGTQVTVSS | high polyreactivity
20 | QVQLVESGGGLVQAGGSLRLSSAASGSIFYGNTMGWYRQAPGKERELVAAIRSVGRTYYADSVKGRFTISRDNAKNTDSLQMNSLKPEDTAVYYCAADPRSYFTSEYWGQGSQVTVSS | low polyreactivity
21 | QVQLVESCGGLVQAGGSLRLICAASGRTFYHNAMGWYRQAPGKERELVATINSGGSTYAESVKGRFTISRDNAKNTVYFQMNSLKPEDTAVYYCAATFWSRSRFYYRYDYWGQGTQVTVSS | high polyreactivity

Row | Sequence | polyreactivity (PSR sort gate)
22 | QVQLVESGGGLLKAGGSLRLSCAASGSTFSVYAMGWYRQAPGKEREFVARITWNGGRTYYADSVKGRFTISRDNAKNTVYLQMNSLKPEDTAVYYCAARGPTVTGTGGDYWGQGTQVTVSS | high polyreactivity
23 | QVQLVESGGGLVQAGGSLRLSCAASGRIFYKYAMGWYRQAPGKERELVAAISTGGTRTYYADSVKGRFTISRDNAKNTVYLQMNSLKPEDTAVYYCAARGGDKTYYYWGQGTQVTVSS | high polyreactivity
24 | QVQLVESGGGLVQAGGSLGLSCAASGGILQSYAMGWYRQAPGKERELVATITYSAGSTYYADSVKGRFTISRDNAKNTVYLQMKSLKPEDTAVYVCAARRIPPARYKGYYYWGQGTQLTVSS | high polyreactivity
25 | QVQLVESVGGLVQAGGSLRLSCAASGITIADNAMGWYRQAPRKERELVAAITSGGSTYYADAVKGRFTISRDNAKNTVYFQLNSLKPEDTGVYYCIVRVRRLFYWARLVAYDYWGQGSQVTVSS | high polyreactivity
26 | QVQLVESGGGLVQAGGSLRLSCAASGSTLPPNAMGWSRQAPGKERELVAAISYSGDSTHYADSVKGRFTISRDNAKNTVYLQMNSLKPEDTAVYYCYASSPGAVPVYDYDYWGQGTQVTVSS | low polyreactivity
27 | QVQLVESGGGLVQAGGSLRLSCAASGSTFQWYVMGWYRQAPGKERELVAAITWSGGSTYYADSVKGRFTISRDNAKNTVYLQMNSLKPEDTAVYYCNAVFWIWNAGYDYWGQGTQVTVSS | low polyreactivity
28 | QVQLVESGGGLVQAGVRLRLSCAASGFTFAGTAMGWYRQAPGKERELVAAITSGGSTYYADSVKGRFTISRDNAKNTVYLQMNSLKPEDTAVYYCAALVFRGRSFTHDYWGQGTQVTLSS | high polyreactivity
29 | QVQLVESGGGLVQAGGSLRLSCAASGFIFYQYAMGWYRQAPGKERELVAVISRTGSTSYADSVKGRFTISRDNAKNTVYLQMNSLKPEDTAVYYCAARYYFYDYWGQGSQVTVSS | high polyreactivity
30 | QVQLVESGGGLVQAGGSLRLSCAASGRTFDLNVMGWSRQAPGKERELVAASSFSGGSTYYADSVKGRFTLSRDNAKNTVYLQMNSLKPEDTAVYYCAADGYVRPPEMDYWGQGTQVTVSS | high polyreactivity
31 | QFQLVESGGGLVQAGGSLRLSCAASGLIFTANAMGWYRQAPGKERELVASITWSGDSTYYADSVKGRFTISRDNAKNTVYLQMNSLKPEDSAVYYCNARPVYTYVTYDGNYWGQGTQVTVSS | low polyreactivity
32 | QVQLVESGGGLVQAGGSLRLSCAASGSTFRRNAMGWYRQAPGKERELVAAISRSGDSTYYADSVKGRFTISRDYAKNTVYLQMNSLKPEDNAVYYCIAHQSRQVGYWGQGTQVTVSS | high polyreactivity
33 | QGQLVESGGGLGQAGGSLRLSCAASGSTFGDSAMVWYRQAPGKERELVAGISARGGRTYYADSVKGRFTISRDNAKNTVYLQMNSLKPEDTAVYDCNARTGYQDGSYGNDYWGQGTQVTVSS | high polyreactivity
34 | QVQLVESGGGLVQAGGSLRLSCAASGATFERNAMGWYRQAPGKERELVAAITGSGGRTYYADSVKGRFTISRDNAKNTVYLQMNSLKPEDTAVYYCAKDTYYPSSRYNRYYYWGQGTQVTVSS | high polyreactivity
35 | QVQLVESGGGLVQARGSLRLSCAASGSIFNLYAMGWYRQAPGKEREFVASISYSGGSTYYADSVKGRFTISRDNAKNTVYLQINSLKPEDTAVYYCNARLEVYGQRYDYWGQGTQVTVSS | low polyreactivity
36 | QVQLVESGGGLVQAGGSLRLSCAASGFILDNYAMGWYRQAPGKERELVAAISGSGGSTFYADSVKGRFTISRDNAKNTVYLQMNSLKSEDTAVYYCNRDRLLRQYDYWGQGTQVTVSS | high polyreactivity
37 | QVQLVESGGGLVQAGGSLRLSCAASGSTFYLYAMGWYRQAPGKEREFVAAISWSGGRTYYADSVKGRFTISRDNAKNTVYLQMNSLKPEDTAVYYCAAKPLFGTRDDYWGQGTQVTVSS | low polyreactivity
38 | QVQLVESGGGLVQAGGSLRLSCAASGIIFPWYAMGWYRPAPGKERELVAAISGSGGSTYYADSVKGRFTISRDNAKNTVYLQMNSLKPEDTAVYYCAAYPRGSQRYNYGGQGTQVTVSS | high polyreactivity
39 | QVQLVESGGGLVQAGGSLRLSCAASGSIFPWNAMGWYRQAPGKERELVAAISRGGSTNYADSVKGRFTISRDNAKNTVYLQMNSLKPEDTAVYYCAVYYYSYHWGRGYDYWGQGTQVTVSS | high polyreactivity
40 | QVQLVESGGGLVQAGGSLRLSCAASGRIFSAYAMGWYRQAPGKERELVAANSRSGGRTYYADSVKGRFTISRDNAKNTVYLQMNSLKPDDTAVYYCAVLWHGRRPLYKLRTGPEYDYWGQGTQVTVSS | high polyreactivity
41 | QVQLVESGGGLVQAGGSLRLSCAASGRIFHVNAMGWYRQAPGKERELVAAISTSGGRTYYADSVKGRFTISRDNAKNTVYLQLNSLKPEVTAVYYCAAVSRAPGLRYDYWGQGTQVTVSS | high polyreactivity
